Measurements reported in patent US20250136718A1 (MABWELL THERAPEUTICS, published 2025).

Experiments:
[1] = target: T1, cynomolgus monkey TMPRSS6 expressed on HEK293T cells, CynoTMPRSS6-(His)6 (cynomolgus monkey, UniProt Q8IU80 10-811 (human entry)); experiment: summary of Example 4 (FACS, cell surface ELISA)
T1 chain: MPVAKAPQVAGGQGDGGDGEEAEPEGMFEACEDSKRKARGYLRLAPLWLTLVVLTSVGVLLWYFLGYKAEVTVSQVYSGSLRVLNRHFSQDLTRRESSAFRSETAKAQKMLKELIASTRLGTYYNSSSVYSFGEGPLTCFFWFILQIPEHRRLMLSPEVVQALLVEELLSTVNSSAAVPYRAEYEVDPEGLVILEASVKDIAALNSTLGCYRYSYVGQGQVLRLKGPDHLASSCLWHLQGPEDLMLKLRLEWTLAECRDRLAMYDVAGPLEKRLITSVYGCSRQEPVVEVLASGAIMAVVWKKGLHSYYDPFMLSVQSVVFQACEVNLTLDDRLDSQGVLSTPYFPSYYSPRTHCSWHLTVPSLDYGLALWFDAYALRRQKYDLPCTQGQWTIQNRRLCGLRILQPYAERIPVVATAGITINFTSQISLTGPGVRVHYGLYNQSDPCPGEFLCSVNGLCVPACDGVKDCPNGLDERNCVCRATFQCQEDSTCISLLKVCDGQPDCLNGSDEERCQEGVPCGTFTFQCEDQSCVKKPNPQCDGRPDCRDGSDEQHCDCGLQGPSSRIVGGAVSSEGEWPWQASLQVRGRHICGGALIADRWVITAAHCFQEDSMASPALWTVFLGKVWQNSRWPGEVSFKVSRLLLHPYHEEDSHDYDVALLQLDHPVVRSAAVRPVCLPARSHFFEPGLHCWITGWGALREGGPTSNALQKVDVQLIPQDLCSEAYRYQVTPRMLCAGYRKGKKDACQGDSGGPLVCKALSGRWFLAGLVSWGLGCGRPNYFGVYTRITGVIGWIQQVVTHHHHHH
Description: Selected anti-TMPRSS6 antibodies were tested to determine whether any are capable of binding to TMPRSS6 from mouse and/or cynomolgus monkey. HEK293T cells stably expressing human TMPRSS6 (HuTMPRSS6-(His)₆) (generated by LakePharma Inc as described above), HEK293T cells stably expressing mouse TMPRSS6 (MoTMPRSS6-(His)₆) (SEQ ID NO: 98) (generated by LakePharma Inc as described above) and HEK293T cells transiently expressing cynomolgus monkey TMPRSS6 (CynoTMPRSS6-(His)₆) (SEQ ID NO: 99) (generated in house) were collected. HEK293T cells stably expressing human TMPRSS6 were used as a positive control and HEK293T cells were used as a negative control (as described above). Cells were blocked with dPBS+3% BSA before incubation with anti-TMPRSS6 antibodies diluted in dPBS+3% BSA. After incubation, cells were washed with dPBS and followed by another incubation with goat anti-mouse IgG conjugated with AlexaFluor-488 as a 2° antibody (Invitrogen). At last, cells were washed with dPBS to remove unbound antibody, re-suspended with dPBS+1 mM EDTA, and then subjected to FACS analysis using a NOVOCYTE® Flow Cytometer (ACEA Biosciences, Inc., San Diego CA). Bound antibody was determined by excitation at 488 nm and measurement of emission (FITC-A) at 530 nm. Results for these assays are shown in histogram plots in FIGS. 4A-4I.
HEK293T cells stably expressing mouse TMPRSS6 (generated by LakePharma Inc as described above, FIGS. 4J, 4L, 4N, 4P, 4R, 4T) or cynomolgus monkey (generated in house as described above, FIGS. 4K, 4M, 4O, 4Q, 4S, 4U) were fixed with methanol (100%), and washed with dPBS (Dulbecco's phosphate-buffered saline, Corning Cellgro) before incubation with various concentrations of anti-TMPRSS6 antibodies and their humanized variants diluted in BSA medium (DMEM+1% Pen/Strep+10 mM HEPES+1 mg/ml BSA (Sigma-Aldrich)). Purified mouse IgG (FIGS. 4J-4O) or Human IgG1 (FIGS. 4P-4U) was used as a control.

[2] = target: T2, human TMPRSS6 (matriptase-2) expressed on HEK293T cells, huTMPRSS6-(His)6 (UniProt Q8IU80 10-811); experiment: FACS
T2 chain: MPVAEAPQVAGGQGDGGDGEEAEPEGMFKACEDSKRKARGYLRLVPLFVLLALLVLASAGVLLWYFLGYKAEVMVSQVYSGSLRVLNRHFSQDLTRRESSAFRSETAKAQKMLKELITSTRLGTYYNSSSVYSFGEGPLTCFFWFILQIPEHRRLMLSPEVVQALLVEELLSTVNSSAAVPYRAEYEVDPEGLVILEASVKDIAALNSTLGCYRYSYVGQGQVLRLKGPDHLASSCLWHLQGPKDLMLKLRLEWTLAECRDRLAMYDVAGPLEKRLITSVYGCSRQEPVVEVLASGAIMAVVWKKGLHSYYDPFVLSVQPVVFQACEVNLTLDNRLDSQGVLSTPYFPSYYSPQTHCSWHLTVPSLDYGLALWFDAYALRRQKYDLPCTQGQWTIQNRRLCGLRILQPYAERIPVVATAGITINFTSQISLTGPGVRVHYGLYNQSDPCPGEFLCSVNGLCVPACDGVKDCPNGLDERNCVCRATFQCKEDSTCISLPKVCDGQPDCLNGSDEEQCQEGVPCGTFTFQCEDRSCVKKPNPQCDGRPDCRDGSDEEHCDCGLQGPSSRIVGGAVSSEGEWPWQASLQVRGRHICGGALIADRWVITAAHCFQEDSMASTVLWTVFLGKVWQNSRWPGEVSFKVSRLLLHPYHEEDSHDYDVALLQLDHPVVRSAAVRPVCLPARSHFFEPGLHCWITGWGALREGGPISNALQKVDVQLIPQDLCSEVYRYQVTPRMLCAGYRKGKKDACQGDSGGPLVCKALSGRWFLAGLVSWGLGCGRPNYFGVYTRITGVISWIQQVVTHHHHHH

[3] = target: T2, human TMPRSS6 (matriptase-2) expressed …; experiment: cell surface ELISA
[4] = target: T3, cynomolgus monkey TMPRSS6 expressed on HEK293T cells, CynoTMPRSS6-(His)6; experiment: cell surface ELISA
T3 chain: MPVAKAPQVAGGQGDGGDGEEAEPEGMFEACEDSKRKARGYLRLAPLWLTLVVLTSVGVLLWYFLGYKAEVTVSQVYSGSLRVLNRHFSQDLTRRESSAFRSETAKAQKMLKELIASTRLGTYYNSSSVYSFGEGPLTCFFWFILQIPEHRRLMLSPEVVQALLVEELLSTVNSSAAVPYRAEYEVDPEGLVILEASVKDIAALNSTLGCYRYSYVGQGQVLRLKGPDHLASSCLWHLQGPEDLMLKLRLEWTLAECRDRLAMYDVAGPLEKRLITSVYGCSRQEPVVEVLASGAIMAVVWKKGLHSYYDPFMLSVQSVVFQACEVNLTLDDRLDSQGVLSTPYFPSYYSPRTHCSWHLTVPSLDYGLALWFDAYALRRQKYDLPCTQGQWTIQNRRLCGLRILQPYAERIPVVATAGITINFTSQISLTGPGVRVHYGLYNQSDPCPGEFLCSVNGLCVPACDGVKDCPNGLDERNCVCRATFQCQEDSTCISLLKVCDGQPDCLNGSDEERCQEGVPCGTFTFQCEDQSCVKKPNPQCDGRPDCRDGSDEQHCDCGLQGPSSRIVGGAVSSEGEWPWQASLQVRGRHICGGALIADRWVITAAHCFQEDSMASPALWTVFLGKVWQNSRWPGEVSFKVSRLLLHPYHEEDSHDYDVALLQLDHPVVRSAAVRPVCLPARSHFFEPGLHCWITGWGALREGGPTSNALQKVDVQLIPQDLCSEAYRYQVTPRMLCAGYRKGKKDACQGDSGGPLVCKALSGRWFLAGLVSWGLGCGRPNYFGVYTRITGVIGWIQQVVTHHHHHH

Binder	binding result [1]	EC50 [2]	EC50 [3]	EC50 [4]
MWTx-002 anti-TMPRSS6 monoclonal antibody (antibody, mouse IgG2b, kappa, V domains shown, Mouse monoclonal antibody from hybridoma (ATCC PTA-126760)) VH: EVQLQQSGAELVKPGASVKLSCTASGFNIKDYYIHWVKERTEQGLEWFGRIDPEDGESEYAPKFQGKATLTADTSSNTAYLQLSSLTSEDTAVYYCTRGDSMMVTYFDYWGQGTTLTVSS VL: DIVMTQSHKFMSTSVGDRVSITCKASQDVSTAVAWYQQKPGQSPKLLIYWAFTRHTGVPDRFTSTGSGTDYALTISSVQAEDLALYYCQQHYRSPWTFGGGTKLEIKR	binds	0.2 µg/mL	0.04 µg/mL	–
MWTx-001 anti-TMPRSS6 monoclonal antibody (antibody, mouse IgG2a, kappa, V domains shown, Mouse monoclonal antibody from hybridoma (ATCC PTA-126759)) VH: QVQLQQPGAELAKPGASVKMSCKASGYTFTSYWITWVKQRPGQDLEWIGNIYPGSGSTYYNEKFKSKATLTVDTSSRTAYMQLSSLTSADSAVYYCAPYDSDYAMDYWGQGTSVTVSS VL: DIKMTQSPSSMYASLGERVTITCKASQDINNYLSWFQQKPGKSPKTLIYRANRLVDGVPSRVSGSGSGQDYSLTISSLEYEDVGIYFCLQYDEFPLTFGAGTKLELKR	binds	1 µg/mL	0.2 µg/mL	–
humanized anti-TMPRSS6 antibody variant hzMWTx-002 Var (antibody, human IgG1, kappa, N297A, V domains shown, Human IgG1 / kappa) VH: EVQLVQSGAEVKKPGASVKVSCKASGFNIKDYYIHWVRQATGQGLEWMGRIDPEDAESEYAPKFQGRVTITADTSTDTAYMELSSLRSEDTAVYYCTRGDSMMVTYFDYWGQGTLVTVSS VL: DIQMTQSPSSLSASVGDRVTITCKASQDVSTAVAWYQQKPGKAPKLLIYWAFTRHTGVPSRFSGSGSGTDYALTISSLQPEDFATYYCQQHYRSPWTFGGGTKVEIKR	–	–	–	0.06 µg/mL
MWTx-003 anti-TMPRSS6 monoclonal antibody (antibody, mouse IgG2b, kappa, V domains shown, Mouse monoclonal antibody from hybridoma (ATCC PTA-126761); The recombinant version r4K12B has the same HC and LC; also called r4K12B; recombinant MWTx-003) VH: EVQLQQSGAELVKPGASVKLSCTASGFNIEDYYIHWVKERTEQGLEWIGRIDPEDGETTYAPQFQGKATIIPDTSSNTAYMQLSSLTSEDAAVYYCARSIYLDPMDYWGQGTSVTVSS VL: DIVMTQSHKFMSTSVGDRVSITCKASQDVTTAVAWYQQKPGQSPKILIYWATTRHTGVPDRFTGSISGTTYILTISSVQAEDLALYYCQQHYSTPYTFGGGTKLEIKR	binds	0.2 µg/mL	0.05 µg/mL	–
humanized anti-TMPRSS6 antibody variant hzMWTx-003 Var (antibody, human IgG1, kappa, L234A L235A, V domains shown, Human IgG1 / kappa) VH: QVQLVQSGAEVKKPGASVKVSCKASGFNIEDYYMHWVRQAPGQRLEWMGRIDPEDAETTYSPKFQGRVTIIPDTSANTAYMELSSLRSEDTAVYYCARSIYLDPMDYWGQGTLVTVSS VL: DIQMTQSPKSLSASVGDRVTITCRASQDVTTALAWYQQKPGQSPKLLIYWATTRHSGVPSRFSGSGSGTDFTLTISSLQPEDFATYYCQQHYSTPYTFGQGTKLEIKR	–	–	–	0.03 µg/mL
humanized anti-TMPRSS6 antibody variant hzMWTx-001 Var (antibody, human IgG1, kappa, N297A, V domains shown, Human IgG1 / kappa) VH: EVQLVQSGAEVKKPGASVKVSCKASGYTFTSYWITWVRQAPGQRLEWIGNIYPGSGSTYYNEKFKSKATITRDTSSRTAYMELSSLRSEDTAVYYCAPYDADYAMDYWGQGTLVTVSS VL: DIQMTQSPSSLSASVGDRVTITCKASQDISNYLSWFQQKPGKAPKLLIYRANRLVEGVPSRFSGSGSGTDFTLTISSLQPEDFATYFCLQYDEFPLTFGGGTKVEIKR	–	–	–	0.003 µg/mL
